From patent publication US20190077875A1 (MorphoSys, published 2019) come the findings set out here.

This experiment addresses T1, MOR202 (anti-CD38 antibody).
T1 construct: also called MOR03087
Nature of the experiment: serum immunofixation electrophoresis (IFE) after pre-incubation of MOR202 (1200 µg/mL, saline or serum) with MOR09292-hAlb; anti-IgG or anti-lambda staining. On the procedure:
MOR202 at a constant concentration of 1200 μg/mL in saline (Lane 2-3) or serum (Lane 4-13) was pre-incubated with or without its idiotypic antibody MOR09292-hAlb at different ratios and the prepared samples were analyzed via IFE using anti-IgG staining (Lane 2-8) or anti-lambda staining (Lane 9-13). (Lane 2=MOR202; Lane 3=MOR202+MOR09292-hAlb at 2400 μg/mL; Lane 4=MOR202; Lane 5=MOR202+MOR09292-hAlb at 1200 μg/mL; Lane 6=MOR202+MOR09292-hAlb at 1800 μg/mL; Lane 7=MOR202+MOR09292-hAlb at 2400 μg/mL; Lane 8=MOR202+MOR09292-hAlb at 3600 μg/mL; Lane 9=MOR202; Lane 10=MOR202+MOR09292-hAlb at 1200 μg/mL; Lane 11=MOR202+MOR09292-hAlb at 1800 μg/mL; Lane 12=MOR202+MOR09292-hAlb at 2400 μg/mL; Lane 13=MOR202+MOR09292-hAlb at 3600 μg/mL; Lane 1=human serum from a healthy donor stained for total protein to evaluate general background signaling).
In order to differentiate between MOR202 related assay signals in IFE vs. endogenous M-protein spikes a method was tested pre-incubating a MOR202 containing sample with an MOR202 specific anti-idiotypic antibody (MOR09292). […] For evaluating if the migration distance is large enough to be detected samples containing MOR202 in saline were prepared and pre-incubated with or without MOR09292. […] Afterwards, the samples were analyzed and IFE gels were stained with anti-IgG or anti-lambda antisera. […]

T1 sequence (VH, as listed by the source, chain 1 of 2): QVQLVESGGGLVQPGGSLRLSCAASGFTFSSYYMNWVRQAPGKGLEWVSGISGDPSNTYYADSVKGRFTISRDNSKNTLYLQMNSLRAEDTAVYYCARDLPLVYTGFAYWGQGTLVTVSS
T1 sequence (VL, as listed by the source, chain 2 of 2): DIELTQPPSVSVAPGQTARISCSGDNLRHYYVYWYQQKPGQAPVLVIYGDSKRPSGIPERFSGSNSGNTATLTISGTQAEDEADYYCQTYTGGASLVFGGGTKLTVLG

B1: MOR09292-human albumin fusion (MOR09292-Fab fragment genetically fused to human albumin) (Fab)
heavy: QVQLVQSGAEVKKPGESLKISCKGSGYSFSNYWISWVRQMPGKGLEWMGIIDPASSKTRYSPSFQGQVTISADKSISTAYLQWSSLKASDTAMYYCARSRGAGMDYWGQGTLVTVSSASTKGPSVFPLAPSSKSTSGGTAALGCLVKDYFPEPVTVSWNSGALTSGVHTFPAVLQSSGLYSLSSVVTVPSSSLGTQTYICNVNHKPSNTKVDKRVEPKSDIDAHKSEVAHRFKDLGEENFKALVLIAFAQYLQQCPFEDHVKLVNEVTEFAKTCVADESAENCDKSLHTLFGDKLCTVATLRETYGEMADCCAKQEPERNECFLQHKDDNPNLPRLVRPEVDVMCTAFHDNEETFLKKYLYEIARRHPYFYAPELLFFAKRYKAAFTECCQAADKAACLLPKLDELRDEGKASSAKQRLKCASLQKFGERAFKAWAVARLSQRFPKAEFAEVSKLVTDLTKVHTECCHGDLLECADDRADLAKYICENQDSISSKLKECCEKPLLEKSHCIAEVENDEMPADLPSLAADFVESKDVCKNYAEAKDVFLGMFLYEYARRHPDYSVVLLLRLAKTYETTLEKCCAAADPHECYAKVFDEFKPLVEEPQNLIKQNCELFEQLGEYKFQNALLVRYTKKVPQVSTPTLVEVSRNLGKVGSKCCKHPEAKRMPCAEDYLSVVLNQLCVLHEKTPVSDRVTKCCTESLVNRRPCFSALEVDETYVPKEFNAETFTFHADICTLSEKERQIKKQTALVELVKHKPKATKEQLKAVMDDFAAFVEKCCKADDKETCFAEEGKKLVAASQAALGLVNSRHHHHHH
light: DIVLTQPPSVSGAPGQRVTISCTGSSSNIGAGYDVHWYQQLPGTAPKLLIYADNNRPSGVPDRFSGSKSGTSASLAITGLQSEDEADYYCGSYDESSNSMVFGGGTKLTVLGQPKAAPSVTLFPPSSEELQANKATLVCLISDFYPGAVTVAWKADSSPVKAGVETTTPSKQSNNKYAASSYLSLTPEQWKSHRSYSCQVTHEGSTVEKTVAPTECS
notes: Anti-idiotypic Fab to MOR202, fused to human albumin; also called MOR09292-hAlb; MOR09292-huAlb
For B1, the binding result is recorded as “binds”.
